These results are taken from patent US20230295324A1.

Assay [1] concerns the target human OX40 on cells (CHO-K1/hu OX40) (human) (UniProt P43489). In words: FACS, CHO-K1/hu OX40 cells.
For assay [2] the target is unchanged. Put plainly: FACS, blocking of biotin-human OX40L on CHO-K1/hu OX40 cells. In general terms: Flow cytometry measures light scatter and fluorescence of single cells or particles in a stream.
Assay [3] has the same target. In words: cell-based or functional assay.

Sequence of human OX40 on cells (CHO-K1/hu OX40) (human) (P43489 29-277): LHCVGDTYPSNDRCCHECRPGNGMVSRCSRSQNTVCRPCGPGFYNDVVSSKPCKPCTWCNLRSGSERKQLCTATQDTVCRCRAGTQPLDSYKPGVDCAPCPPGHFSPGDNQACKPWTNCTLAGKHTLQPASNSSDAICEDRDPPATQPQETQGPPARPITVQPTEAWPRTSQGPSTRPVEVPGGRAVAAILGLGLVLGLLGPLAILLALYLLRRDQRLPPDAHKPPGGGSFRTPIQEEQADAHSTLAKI

B1: PR002075 (antibody, human IgG1, V domains shown)
VH: EVQLVETGGGLIQPGGSLRLSCAASGFTFSSYAMSWVRQAPGKGLEWVSAISGSGGNTYYADSVRGRFTISRDNSKNTLYLQMNSLRAEDTAVYYCANGITGTTDVDYWGQGTRVTVSS
B1 showed a Maximum MFI in assay [1] of 501 MFI. For the same molecule, the Maximum inhibition rate (%) in assay [2] turned out to be 0%. Besides, in assay [3], the EC50, HEK293/OX40/NF-kb luciferase reporter came out at 136 nM and the Maximum fluorescence signal value, HEK293/OX40/NF-kb luciferase reporter turned out to be 140000 luminescence.
